{"source": "paper PMC11575137", "about": "(BMC Biology, 2024)"}
{"biological_target": "biotinylated GTP-loaded KRAS (recombinant human KRAS loaded with GppCp) (human, UniProt P01116 1-189)", "sequence (P01116 whole entry)": "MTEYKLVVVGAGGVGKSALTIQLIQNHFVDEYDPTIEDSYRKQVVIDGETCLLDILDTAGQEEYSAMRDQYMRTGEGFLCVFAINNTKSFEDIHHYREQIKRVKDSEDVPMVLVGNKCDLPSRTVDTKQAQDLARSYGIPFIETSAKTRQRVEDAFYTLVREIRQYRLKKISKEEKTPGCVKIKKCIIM", "assay": "BLI", "units": {"Kd": "µM"}}
{"binder": "VIKVYSEDETSRALD", "note": "[peptide_(GRB14)]", "Kd": 87}
{"binder": "DVKVFSEDGTSKVVE", "note": "[peptide_(GRB10)]", "Kd": 78}
{"binder": "IVRVFLPNKQRTVVP", "note": "[peptide_(BRAF)]", "Kd": 150}
{"binder": "VVNVGGKTVK", "note": "[peptide_(RAB4B)]", "Kd": 84}
